# Data as given in publication PMC11965310.
# Molecular target: Recombinant Human LRP1 cluster III protein, Fc Tag (human) (UniProt Q07954)
# Experiment: SPR; LRP1 cluster III-Fc captured on a Protein G chip (1800 RU); tau1N4R as analyte 0.012-1 μM, single-cycle kinetics; HBS-N with 0.005% P20 and 1 mM CaCl2; 1:1 Langmuir model
# Recombinant Human LRP1 cluster III protein, Fc Tag (human), sequence (Q07954 2522-2940): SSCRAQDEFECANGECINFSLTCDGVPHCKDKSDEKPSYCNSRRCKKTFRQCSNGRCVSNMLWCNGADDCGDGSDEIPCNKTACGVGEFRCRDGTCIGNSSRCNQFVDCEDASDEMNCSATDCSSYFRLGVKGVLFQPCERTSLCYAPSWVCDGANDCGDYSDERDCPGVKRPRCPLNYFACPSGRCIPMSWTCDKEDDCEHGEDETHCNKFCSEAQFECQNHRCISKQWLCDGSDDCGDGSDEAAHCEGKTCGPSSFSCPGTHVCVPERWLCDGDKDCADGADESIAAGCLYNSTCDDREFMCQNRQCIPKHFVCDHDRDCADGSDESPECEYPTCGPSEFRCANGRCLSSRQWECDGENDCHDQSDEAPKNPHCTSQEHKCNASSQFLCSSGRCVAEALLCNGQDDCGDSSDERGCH
substance,measurement,value
tau1N4R (from UniProt P10636-6 1-383) (natural protein),Kd,91 nM
